In publication PMC5343618:

Biological target: T1, alkaline phosphatase D (PhoD) with a C-terminal 6-His tag (PhoD-H) (B. subtilis 168), P42251
T1 chain: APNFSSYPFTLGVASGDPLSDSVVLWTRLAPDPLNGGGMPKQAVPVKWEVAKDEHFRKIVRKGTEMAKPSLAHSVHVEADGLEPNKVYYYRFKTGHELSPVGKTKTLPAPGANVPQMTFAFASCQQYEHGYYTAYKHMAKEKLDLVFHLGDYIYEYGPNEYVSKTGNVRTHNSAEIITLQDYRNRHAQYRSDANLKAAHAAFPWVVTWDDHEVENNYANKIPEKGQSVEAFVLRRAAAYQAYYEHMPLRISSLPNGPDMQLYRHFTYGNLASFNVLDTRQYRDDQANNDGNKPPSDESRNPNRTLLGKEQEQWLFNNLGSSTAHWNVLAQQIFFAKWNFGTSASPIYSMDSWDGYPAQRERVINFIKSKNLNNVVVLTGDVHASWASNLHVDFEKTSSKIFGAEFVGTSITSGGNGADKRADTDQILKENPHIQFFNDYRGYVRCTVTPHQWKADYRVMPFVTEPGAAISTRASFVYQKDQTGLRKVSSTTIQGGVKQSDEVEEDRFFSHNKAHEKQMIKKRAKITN
Experiment: cross-linking; in vivo cross-linking of B. subtilis cells with 0.5 mM DSS in PBS pH 8.3, 20 min at 37 °C; cells recovered 1 h in fresh medium; 10% SDS-PAGE with β-mercaptoethanol and anti-His immunoblot of cell and supernatant fractions
Settings: remark: other sources report otherwise

- stoichiometry N: 2
B1: alkaline phosphatase D (PhoD) with a C-terminal 6-His tag (PhoD-H), P42251 57-583 (enzyme)
chain: APNFSSYPFTLGVASGDPLSDSVVLWTRLAPDPLNGGGMPKQAVPVKWEVAKDEHFRKIVRKGTEMAKPSLAHSVHVEADGLEPNKVYYYRFKTGHELSPVGKTKTLPAPGANVPQMTFAFASCQQYEHGYYTAYKHMAKEKLDLVFHLGDYIYEYGPNEYVSKTGNVRTHNSAEIITLQDYRNRHAQYRSDANLKAAHAAFPWVVTWDDHEVENNYANKIPEKGQSVEAFVLRRAAAYQAYYEHMPLRISSLPNGPDMQLYRHFTYGNLASFNVLDTRQYRDDQANNDGNKPPSDESRNPNRTLLGKEQEQWLFNNLGSSTAHWNVLAQQIFFAKWNFGTSASPIYSMDSWDGYPAQRERVINFIKSKNLNNVVVLTGDVHASWASNLHVDFEKTSSKIFGAEFVGTSITSGGNGADKRADTDQILKENPHIQFFNDYRGYVRCTVTPHQWKADYRVMPFVTEPGAAISTRASFVYQKDQTGLRKVSSTTIQGGVKQSDEVEEDRFFSHNKAHEKQMIKKRAKITN
